B1: Beclin 1 coiled coil (CC) domain (residues 174–266), wild type, untagged (domain or fragment)
chain: DSEQLQRELKELALEEERLIQELEDVEKNRKVVAENLEKVQAEAERLDQEEAQYQREYSEFKRQQLELDDELKSVENQMRYAQMQLDKLKKTN
B2: CC region of rat Atg14L (residues 88–178) (domain or fragment)
chain: KQEEFQKEVLKAMEGKRLTDQLRWKIMSCKMRIEQLKQTICKGNEEMKKNSEGLLKNKEKNQKLYSRAQRHQEKKEKIQRHNRKLGDLVEK
B4: CC region of mouse UVRAG (residues 228–298) (domain or fragment)
chain: TSNELKKESECLRLKILVLRNELERQKKALGREVAFLHKQQMALQDKGSAFSTEHGKLQLQKDSLSELRKE

Assays:
[1] = target: CC region of mouse UVRAG (residues 228–298) (mouse) (UniProt Q8K245); test: ITC
[2] = target: B4; test: ITC
[3] = target: the molecule itself; test: ITC
[4] = target: B2; test: ITC
[5] = target: Beclin 1 CC domain MutStab E224L (rat, UniProt Q91XJ1 174-266, E224L); test: ITC
[6] = target: Beclin 1 CC domain MutM L178A/L196A (rat, UniProt Q91XJ1 174-266, L178A | L196A); test: ITC
[7] = target: B1; test: ITC
[8] = target: Beclin 1 CC domain MutM L178A/L259A (rat, UniProt Q91XJ1 174-266, L178A | L259A); test: ITC
[9] = target: Beclin 1 CC domain MutM L178A/L192A (rat, UniProt Q91XJ1 174-266, L178A | L192A); test: ITC
[10] = target: the molecule itself; test: AUC

Chain of Beclin 1 CC domain MutM L178A/L259A (Q91XJ1 174-266 L178A/L259A): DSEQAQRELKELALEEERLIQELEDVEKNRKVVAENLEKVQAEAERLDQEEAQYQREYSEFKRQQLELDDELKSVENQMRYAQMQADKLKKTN

Molecule “Beclin 1 CC domain MutM L178A/L192A (from UniProt Q91XJ1 174-266) (domain or fragment)” has a Kd [1] of 2240 nM.

“Beclin 1 CC domain MutM L178A/L196A (from UniProt Q91XJ1 174-266) (domain or fragment)” was tested, and the Kd [1] was 1140 nM.

“Beclin 1 CC domain MutM L178A/L259A (from UniProt Q91XJ1 174-266) (domain or fragment)” was tested, and the Kd [1] was 70 nM.

Molecule “Beclin 1 CC domain MutStab A217L/E224L (from UniProt Q91XJ1 174-266) (domain or fragment)” has a Kd [1] of 1440 nM and a stoichiometry N [1] of 1.

“Beclin 1 CC domain MutStab A217L/E224L/A255L (from UniProt Q91XJ1 174-266) (domain or fragment)” was tested, and the Kd [1] was 4240 nM.

For “Beclin 1 CC domain MutStab E189L (from UniProt Q91XJ1 174-266) (domain or fragment)”, the Kd [1] was 1130 nM.

With “Beclin 1 CC domain MutStab E189L/A217L/E224L/A255L (from UniProt Q91XJ1 174-266) (domain or fragment)” the Kd [1] was 8700 nM.

For “Beclin 1 CC domain MutStab E189L/A255L (from UniProt Q91XJ1 174-266) (domain or fragment)”, the Kd [1] was 1310 nM and the stoichiometry N [1] was 1.

“Beclin 1 CC domain MutStab E224L (from UniProt Q91XJ1 174-266) (domain or fragment)” gave a Kd [1] of 2430 nM.

For B1, the “stoichiometry N” value [2] was 1, the Kd [3] was roughly 89000 nM and the “stoichiometry N” value [4] was 1.

In the case of B2, the Kd [5] is reported as 8850 ± 400 nM, the Kd [6] is reported as 6850 ± 840 nM and the Kd [7] is reported as 3220 ± 950 nM. It also gave a Kd [8] of 1200 ± 130 nM and a Kd [9] of 4610 ± 500 nM.

B3: Beclin 1 CC domain MutStab E189L/A217L/E224L/A255L (domain or fragment)
chain: DSEQLQRELKELALELERLIQELEDVEKNRKVVAENLEKVQAELERLDQELAQYQREYSEFKRQQLELDDELKSVENQMRYLQMQLDKLKKTN
In the case of B3, the “stoichiometry N” value [10] is reported as 4.

In the case of B4, the Kd [7] is reported as 240 ± 60 nM.

From paper PMC3293417 (Nature Communications, 2012)
